The results in this text go back to patent EP4596582A1 (Sichuan Kelun-Biotech Biopharmaceutical Co., Ltd., dated 2025).

Experiment [1] has as its target T1, human B7-H3 on human tumor cells (MCF-7, HT29, NCI-N87, HCC1806, HCC827) (human, UniProt Q5ZPR3 29-534).
T1 construct: whole, on cells
T1 sequence (looked up): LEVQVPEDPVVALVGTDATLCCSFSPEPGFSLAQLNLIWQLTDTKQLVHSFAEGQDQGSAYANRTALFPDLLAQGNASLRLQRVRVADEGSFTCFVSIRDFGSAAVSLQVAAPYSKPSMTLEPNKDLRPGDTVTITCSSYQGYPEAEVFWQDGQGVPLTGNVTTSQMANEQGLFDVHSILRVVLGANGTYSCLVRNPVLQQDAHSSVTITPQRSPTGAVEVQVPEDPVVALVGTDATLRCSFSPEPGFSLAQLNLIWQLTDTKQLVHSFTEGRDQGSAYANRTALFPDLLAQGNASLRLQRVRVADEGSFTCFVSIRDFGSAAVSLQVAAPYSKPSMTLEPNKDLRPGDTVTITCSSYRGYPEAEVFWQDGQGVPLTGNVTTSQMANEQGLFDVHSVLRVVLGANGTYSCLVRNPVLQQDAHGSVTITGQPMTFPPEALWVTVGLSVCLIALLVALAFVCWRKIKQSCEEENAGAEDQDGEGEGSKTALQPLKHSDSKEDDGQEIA
The experiment can be described thus: flow cytometry on HCC1806 cells. (In general: Flow cytometry measures light scatter and fluorescence of single cells or particles in a stream.)

Experiment [2] addresses T2, rat B7-H3 on CHO-S cells (CHO-S-rat B7-H3) (rat, UniProt Q7TPB4 29-316).
T2 construct: whole, on cells; also called rat B7-H3-overexpressed cells
T2 sequence (looked up): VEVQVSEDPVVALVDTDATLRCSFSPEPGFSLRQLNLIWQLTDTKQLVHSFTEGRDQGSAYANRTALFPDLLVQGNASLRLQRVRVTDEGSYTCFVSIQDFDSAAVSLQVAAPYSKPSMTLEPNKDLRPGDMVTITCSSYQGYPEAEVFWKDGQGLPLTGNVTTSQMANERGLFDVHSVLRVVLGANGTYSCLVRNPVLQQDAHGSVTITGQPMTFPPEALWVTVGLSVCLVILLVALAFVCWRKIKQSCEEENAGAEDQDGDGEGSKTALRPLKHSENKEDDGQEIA
The experiment can be described thus: flow cytometry on CHO-S-rat B7-H3 cells.

For experiment [3], the target named is T3, human B7-H3-4Ig-His protein (human, UniProt Q5ZPR3 29-466).
T3 construct: extracellular domain; Made in HEK293-EBNA cells
T3 sequence: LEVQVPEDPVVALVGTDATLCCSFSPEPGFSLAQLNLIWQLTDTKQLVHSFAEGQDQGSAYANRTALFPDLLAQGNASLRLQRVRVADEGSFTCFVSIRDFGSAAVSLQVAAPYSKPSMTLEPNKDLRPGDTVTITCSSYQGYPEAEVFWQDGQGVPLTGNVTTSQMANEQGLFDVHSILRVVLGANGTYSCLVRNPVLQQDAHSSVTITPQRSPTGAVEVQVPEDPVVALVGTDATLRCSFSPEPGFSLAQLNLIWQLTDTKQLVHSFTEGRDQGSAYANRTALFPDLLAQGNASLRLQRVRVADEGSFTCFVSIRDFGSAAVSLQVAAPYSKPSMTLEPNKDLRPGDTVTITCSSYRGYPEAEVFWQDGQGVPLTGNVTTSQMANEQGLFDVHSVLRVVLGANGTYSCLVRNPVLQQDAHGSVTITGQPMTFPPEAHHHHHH
The experiment can be described thus: BLI (ForteBio), antibody captured on Protein A sensor, 1:1 global fit.

The target in experiment [4] is T4, monkey B7-H3-4Ig-His protein (monkey).
T4 chain: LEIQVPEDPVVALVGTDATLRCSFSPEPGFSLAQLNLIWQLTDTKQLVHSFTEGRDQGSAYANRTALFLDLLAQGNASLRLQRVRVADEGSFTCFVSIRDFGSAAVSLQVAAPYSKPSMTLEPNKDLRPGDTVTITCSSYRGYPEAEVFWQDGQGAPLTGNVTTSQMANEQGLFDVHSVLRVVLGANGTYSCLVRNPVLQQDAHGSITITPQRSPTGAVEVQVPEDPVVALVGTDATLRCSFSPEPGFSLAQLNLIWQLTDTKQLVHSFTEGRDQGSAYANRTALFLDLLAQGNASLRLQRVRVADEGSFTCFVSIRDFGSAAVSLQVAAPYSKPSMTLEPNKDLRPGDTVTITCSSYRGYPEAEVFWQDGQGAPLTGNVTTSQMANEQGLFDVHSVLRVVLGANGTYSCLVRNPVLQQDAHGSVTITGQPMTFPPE
The description is as above.

Experiment [5] deals with T5, human B7-H3-2Ig-His protein (human).
T5 chain: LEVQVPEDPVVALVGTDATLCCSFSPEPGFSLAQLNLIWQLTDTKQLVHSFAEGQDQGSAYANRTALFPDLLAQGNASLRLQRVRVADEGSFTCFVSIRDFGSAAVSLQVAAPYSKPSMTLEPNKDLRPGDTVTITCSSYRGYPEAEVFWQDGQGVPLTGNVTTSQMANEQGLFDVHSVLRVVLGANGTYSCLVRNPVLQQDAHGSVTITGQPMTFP
Described as above.

The target in another experiment is T6, human B7-2-his (human, UniProt P42081 24-247, limits assumed).
T6 construct: Bought protein; not shown: his tag
T6 sequence (looked up): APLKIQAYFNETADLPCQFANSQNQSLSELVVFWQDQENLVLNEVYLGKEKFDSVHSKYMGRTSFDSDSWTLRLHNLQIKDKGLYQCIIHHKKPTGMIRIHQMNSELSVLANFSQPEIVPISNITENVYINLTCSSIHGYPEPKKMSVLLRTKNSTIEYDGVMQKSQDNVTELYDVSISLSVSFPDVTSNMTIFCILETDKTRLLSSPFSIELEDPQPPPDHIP
The experiment can be described thus: ELISA, antigen coated at 1 ug/ml. A general note: In an ELISA, binding on a coated surface is turned into a signal by an enzyme label.

The next experiment deals with T7, human B7-1-his (human, UniProt P33681 35-242).
T7 construct: Bought protein; not shown: his tag
T7 sequence (looked up): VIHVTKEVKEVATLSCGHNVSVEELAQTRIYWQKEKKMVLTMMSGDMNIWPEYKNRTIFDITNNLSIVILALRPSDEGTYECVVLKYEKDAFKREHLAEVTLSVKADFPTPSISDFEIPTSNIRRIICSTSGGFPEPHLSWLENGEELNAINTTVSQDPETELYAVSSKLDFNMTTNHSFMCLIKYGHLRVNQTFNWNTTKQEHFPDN
The experiment in a line: ELISA, antigen coated at 1 ug/ml.

B1: anti-human-B7-H3 human antibody 2#8890 (antibody, human IgG1, kappa, V domains shown)
VH: QVQLQESGPGLVQPSGTLSLTCAVSGGSDSSTNWWTWVRQSPGQGLEWIGEISPIGFTSYSPSLRSRVTISVDKSKTQFSLKLSSVTAADTAVYYCARDRLYFAFWGQGTLVTVSS
VL: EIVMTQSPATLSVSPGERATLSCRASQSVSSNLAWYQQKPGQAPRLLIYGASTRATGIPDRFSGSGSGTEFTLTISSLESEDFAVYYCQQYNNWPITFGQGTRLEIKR
What is called EC50 is the midpoint of the concentration-response curve. What is called Kd is the free concentration of one partner at which half of the binding sites on the other are occupied at equilibrium, for simple one-to-one binding. B1 returned an EC50 in experiment [1] of 9.67 ng/mL. Further, the binding result (in experiment [2]; in the experiment with human B7-2-his; in the experiment with human B7-1-his) was “no binding (tested: 10 ug/ml highest concentration)” throughout. Further, the dissociation constant (Kd) in experiment [3] came out at 0.783 nM; in experiment [4], 1.24 nM; in experiment [5] it was 18.3 nM.
